Assay results from paper doi:10.1101/2022.01.11.475808, “Hypoxia Dynamically Regulates DBC1 Ubiquitination and Stability by SIAH2 and OTUD5 in Breast Cancer Progression” (bioRxiv, 2022).

Assays:
His-DBC1 = target: T1, His-DBC1 (human, UniProt Q8N163 1-923); assay: pull-down; GST-SIAH2 and His-DBC1 proteins generated in E. coli, incubated in vitro overnight, then GST beads for 2 h at 4 °C; details: both partners purified
T1 construct: Deleted in Breast Cancer 1 (DBC1, CCAR2), human, bacterially expressed as His-DBC1; also called His-tagged DBC1; source: E. coli BL21, purified

[1] = target: T2, N-terminal half of His-DBC1 (1-461) (human, UniProt Q8N163 1-461); assay: as above; details: both partners purified
T2 construct: source: E. coli, bacterially expressed
T2 sequence (Q8N163 1-461): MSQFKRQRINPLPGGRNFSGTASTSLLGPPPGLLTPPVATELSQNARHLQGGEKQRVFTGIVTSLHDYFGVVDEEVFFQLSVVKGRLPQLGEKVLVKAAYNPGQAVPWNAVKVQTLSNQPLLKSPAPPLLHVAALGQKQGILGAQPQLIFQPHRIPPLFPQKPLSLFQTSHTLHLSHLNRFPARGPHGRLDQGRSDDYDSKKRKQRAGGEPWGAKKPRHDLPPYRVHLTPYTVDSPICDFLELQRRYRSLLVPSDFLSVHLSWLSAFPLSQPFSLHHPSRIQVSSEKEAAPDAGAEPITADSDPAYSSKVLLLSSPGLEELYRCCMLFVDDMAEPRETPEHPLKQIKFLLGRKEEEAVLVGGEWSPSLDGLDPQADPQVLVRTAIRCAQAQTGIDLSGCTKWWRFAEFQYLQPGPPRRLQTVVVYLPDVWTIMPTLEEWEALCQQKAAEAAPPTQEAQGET

T1 sequence (Q8N163 whole entry): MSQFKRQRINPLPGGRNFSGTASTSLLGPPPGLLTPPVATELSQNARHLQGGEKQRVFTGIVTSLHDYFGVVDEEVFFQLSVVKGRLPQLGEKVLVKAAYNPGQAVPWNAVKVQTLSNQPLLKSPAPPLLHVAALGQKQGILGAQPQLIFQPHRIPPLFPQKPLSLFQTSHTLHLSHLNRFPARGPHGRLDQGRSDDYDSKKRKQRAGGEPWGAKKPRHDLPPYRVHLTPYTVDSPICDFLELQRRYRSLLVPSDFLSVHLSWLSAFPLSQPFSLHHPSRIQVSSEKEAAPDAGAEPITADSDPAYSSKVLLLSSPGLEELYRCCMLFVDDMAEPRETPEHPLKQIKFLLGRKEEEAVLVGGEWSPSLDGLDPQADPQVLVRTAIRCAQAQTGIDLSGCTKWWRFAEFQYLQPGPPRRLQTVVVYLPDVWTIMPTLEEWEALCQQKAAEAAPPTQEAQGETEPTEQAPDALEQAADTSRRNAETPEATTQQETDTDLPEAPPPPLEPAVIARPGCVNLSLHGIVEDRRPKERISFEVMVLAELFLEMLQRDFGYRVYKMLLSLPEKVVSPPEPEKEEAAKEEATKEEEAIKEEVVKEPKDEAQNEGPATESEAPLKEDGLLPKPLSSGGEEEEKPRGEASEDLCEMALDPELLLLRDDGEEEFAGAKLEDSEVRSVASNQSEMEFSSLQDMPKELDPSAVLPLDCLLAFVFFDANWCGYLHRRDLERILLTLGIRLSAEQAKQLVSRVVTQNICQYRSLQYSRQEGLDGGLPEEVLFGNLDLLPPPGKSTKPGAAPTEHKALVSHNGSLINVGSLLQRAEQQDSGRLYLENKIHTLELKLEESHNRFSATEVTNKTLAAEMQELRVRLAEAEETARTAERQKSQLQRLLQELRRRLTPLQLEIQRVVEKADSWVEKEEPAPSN

binding result (His-DBC1): binds | binding result [1]: binds
B1: GST-SIAH2 (enzyme, human, UniProt O43255 1-324, looked up)
chain: MSRPSSTGPSANKPCSKQPPPQPQHTPSPAAPPAAATISAAGPGSSAVPAAAAVISGPGGGGGAGPVSPQHHELTSLFECPVCFDYVLPPILQCQAGHLVCNQCRQKLSCCPTCRGALTPSIRNLAMEKVASAVLFPCKYATTGCSLTLHHTEKPEHEDICEYRPYSCPCPGASCKWQGSLEAVMSHLMHAHKSITTLQGEDIVFLATDINLPGAVDWVMMQSCFGHHFMLVLEKQEKYEGHQQFFAIVLLIGTRKQAENFAYRLELNGNRRRLTWEATPRSIHDGVAAAIMNSDCLVFDTAIAHLFADNGNLGINVTISTCCP
notes: E3 ubiquitin ligase SIAH2, human, bacterially expressed as GST-SIAH2; also called purified glutathione S-transferase (GST) SIAH2; source: E. coli BL21, purified
